Results on 1 molecule are retold here after patent US6919309B2, “Methods and compositions for inhibiting angiogenesis” (Northwestern University, priority 1997, dated 2005).

For test [1], the system named is SK-N-BE(2) and SK-N-SH neuroblastoma cells. Nature of the test: Differentiation of cultured human neuroblastoma cells (neurite outgrowth). It counts as cell-based. The conditions noted are these: in vitro, 24 hours, purified histidine tagged PEDF; FIGS. 9, 10. As for the experimental part: In vitro experiments were conducted to verify the effect of PEDF on cell lines derived from neuroblastoma tumors. Two neuroblastoma derived cell lines were obtained from the American Tissue Type and Culture, SK-N-BE(2) and SK-N-SH. Both cell lines were maintained in culture in DMEM containing 10% fetal bovine serum (Flow Laboratories, McLean, Va.) in 37° C. and 5% CO2. Cells (1.25×10^4/ml) were resuspended, and 1 ml/well was used to seed 24 well plates. Twenty-four hours later, PEDF was added to triplicate wells at […] , 0.75, 1 or 10 nM, and the cells were incubated for an additional 24 hours. The percentage of differentiated cells was determined by counting the total number of cells in three non-overlapping 1 mm^2 areas per well.

The next test relates to retina of C57/BL6 mice. Nature of the test: Hyperoxia-induced ischemic retinopathy, systemic treatment. It counts as in vivo, mouse. The conditions noted are these: day 12 through 16. As for the experimental part: Retinopathy was induced in C57/BL6 mice by placing seven day old mice with their dams in an oxygen tent and maintaining the animals in a 75% oxygen/25% nitrogen environment until day twelve. On day twelve, the animals were removed from the tent and placed at ambient atmosphere (21% oxygen). From day twelve through day sixteen, pups were treated via intraperitoneal injection once per day with 100 μl of either phosphate buffered saline (PBS) vehicle, or 11.2 μg or 22.4 μg PEDF in PBS. Pups were anesthetized with Metaphane and perfused with 1 ml of fixative (4% paraformaldehyde/100 mM sodium phosphate buffer (pH 7.2)/4% sucrose) through the left ventricle of the heart. Eyes were removed and placed in fixative, embedded in paraffin, and processed for histologic examination. Cross sections of the eye were made, stained with hematoxylin-phloxine-saffarin (HPS), and the number of endothelial cell nuclei crossing the inner limiting membrane of the retina were counted in one cross section that contained the cornea, lens, retina and optic nerve. FIG. 16A illustrates retinopathy in the eye of a PBS treated animal, the box surrounds a vascular tuft that has penetrated the inner limiting membrane of the retinal in the low power picture. FIGS. 16C and 16D illustrate the eye of a PEDF treated mouse, no vascular tufts are present. The # of endothelial cell nuclei were quantified (Table 3).

Test [2] relates to WI-38 fibroblasts, human foreskin fibroblasts, vascular smooth muscle cells, human neutrophils. Nature of the test: Migration assay with non-endothelial cells. In kind it is cell-based. The conditions noted are these: PEDF 0.01 nM to about 50 nM; inducers IL-8 or PDGF; FIGS. 2A-2D. On the procedure:
The ability of PEDF to prevent migration of fibroblasts or smooth muscle was tested using cells obtained from human diploid fibroblast cell line WI-38, human foreskin fibroblasts, vascular smooth muscle, and normal human neutrophils.
The assay was performed as indicated in Example 1, except that the dose of PEDF varied from 0.01 nM to about 50 nM and that the migration assay was performed without inverting the chambers. Moreover, the inducer of migration varied with the cell type (IL-8 was used at 1 μg/ml and PDGF was used at 250 pg/ml).

The subject of the next test is avascular rat cornea. Nature of the test: Rat cornea neovascularization assay (implanted pellets). It counts as in vivo. On the procedure: FIG. 13, comprising FIGS. 13A and 13B, is a table and a series of images of photomicrographs depicting inhibition of neovascularization by purified PEDF and by PEDF present naturally in normal human vitreous and cornea. FIG. 13A: Recombinant (rPEDF) or purified (pPEDF) PEDF (8 nM), PEDF peptide 327 to 343 (299 μg/ml), undiluted vitreous fluid, or corneal extract (used at 200 μg of protein per milliliter) was incorporated with vehicle (PBS) and the indicated additions into Hydron pellets that were implanted into the avascular rat cornea. Vigorous ingrowth of vessels from the limbus toward the pellet by 7 days was scored as a positive response (Polverini, et al, 1991, Methods Enzymol 198:440). Where noted, anti-PEDF linked to protein A beads was used to remove PEDF from vitreous fluid and corneal extract. FIG. 13B, comprising FIGS. 13B-1 through 13B-8: Representative photos of corneal responses from FIG. 13A shown at X13 magnification. PEDF antipeptide antibody (anti-PEDF) was raised in rabbits against a peptide containing pEDF amino acids 327-343, conjugated to Keyhole-limpet hemocyanin, and affinity-purified on a peptide column. Polyclonal antisera against bacterial recombinant PEDF/EPC-1 (anti-EPC-1) is described in DePaolo, et al. (1995, Exp. Cell Res. 220:178) and the antiangiogenic protein angiostatin is descried in O'Reilly, et al. ([…], Cell 79:315). Purchased reagents included neutralizing anti-VEGF (Genzyme Cambridge, Mass.), pan antibodies to TGFβ, and all angiogenic inducers (R&D Systems, Minneapolis, Minn.) except lysophosphatidic acid (Sigma). All proteins and antibodies were extensively dialyzed against PBS before use in biological assays. FIG. 13B-1 corresponds to sample 2 of FIG. 13A; FIG. 13B-2 corresponds to sample 12 of FIG. 13A, FIG. 13B-3 corresponds to sample 3 of FIG. 13A; FIG. 13B-4 corresponds to sample 11 of FIG. 13A; FIG. 13B-5 corresponds to sample 8 of FIG. 13A; FIG. 13B-6 corresponds to sample 16 of FIG. 13A; FIG. 13B-7 corresponds to sample 6 of FIG. 13A; FIG. 13B-8 corresponds to sample 17 of FIG. 13A. […]

Setting [3] is: PEDF 8 nM in pellet, seven days.

Marks after values point to notes of the source that are not given here.

B1: PEDF: full length pigment epithelium derived growth factor, SEQ ID NO:1; purified from WERI-Rb-27R medium or recombinant histidine-tagged (protein, listed as Homo Sapiens)
chain: MQALVLLLCIGALLGHSSCQNPASPPEEGSPDPDSTGALVEEEDPFFKVPVNKLAAAVSNFGYDLYRVRSSMSPTTNVLLSPLSVATALSALSLGADERTESIIHRALYYDLISSPDIHGTYKELLDTVTAPQKNLKSASRIVFEKKLRIKSSFVAPLEKSYGTRPRVLTGNPRLDLQEINNWVQAQMKGKLARSTKEIPDEISILLLGVAHFKGQWVTKFDSRKTSLEDFYLDEERTVRVPMMSDPKAVLRYGLDSDLSCKIAQLPLTGSMSIIFFLPLKVTQNLTLIEESLTSEFIHDIDRELKTVQAVLTVPKLKLSYEGEVTKSLQEMKLQSLFDSPDFSKITGKPIKLTQVEHRAGFEWNEDGAGTTPSPGLQPAHLTFPLDYHLNQPFIFVLRDTDTGALLFIGKILDPRGP
Take B1: the “differentiation of neuroblastoma cells” value in test [1] was “triggered differentiation of the cells”. The entries for the “Mean number of endothelial cell nuclei crossing ILM into vitreous per cross section” value in the test with retina of C57/BL6 mice (11.2 μg PEDF/day intraperitoneal) and in the test on retina of C57/BL6 mice (22.4 μg PEDF/day intraperitoneal) were 18.6 +/− 2.2* and 18.2 +/− 2.5*, respectively. In test [2], the “inhibition of migration of non-endothelial cells” value is given as “did not inhibit the migration”. The “effect on neovascularization in the rat cornea” value in the test on avascular rat cornea (Hydron pellets, 7 days, FIGS. 13A and 13B) was “potently inhibited neovascularization”. Besides, in the test on avascular rat cornea (setting [3]), the “number of corneas with angiogenesis/number of corneas implanted, With bFGF” value is reported as 0/3. Also, in the test on avascular rat cornea (setting [3]), the “number of corneas with angiogenesis/number of corneas implanted, Without bFGF” value was 0/3.
